# Reference: US20210324050A1 (published 2021)
# T1: GI.1 (M87661) VLPs (UniProt Q83884 1-530; Q83885 1-212)
# T1 VP1: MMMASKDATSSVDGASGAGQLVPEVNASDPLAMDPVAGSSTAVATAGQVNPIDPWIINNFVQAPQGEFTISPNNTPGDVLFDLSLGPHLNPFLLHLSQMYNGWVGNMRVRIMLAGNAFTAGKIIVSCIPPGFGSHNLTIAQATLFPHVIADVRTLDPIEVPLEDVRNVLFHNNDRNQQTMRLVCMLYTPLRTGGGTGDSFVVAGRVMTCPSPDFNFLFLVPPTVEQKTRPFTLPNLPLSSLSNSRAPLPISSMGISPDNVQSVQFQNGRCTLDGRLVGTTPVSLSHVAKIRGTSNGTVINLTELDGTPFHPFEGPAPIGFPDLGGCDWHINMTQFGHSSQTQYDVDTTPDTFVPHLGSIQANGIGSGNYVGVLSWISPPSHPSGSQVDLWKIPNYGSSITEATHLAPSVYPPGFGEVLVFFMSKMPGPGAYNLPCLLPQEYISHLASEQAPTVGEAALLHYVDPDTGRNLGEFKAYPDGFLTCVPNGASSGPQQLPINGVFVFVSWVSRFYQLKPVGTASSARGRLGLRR
# T1 VP2: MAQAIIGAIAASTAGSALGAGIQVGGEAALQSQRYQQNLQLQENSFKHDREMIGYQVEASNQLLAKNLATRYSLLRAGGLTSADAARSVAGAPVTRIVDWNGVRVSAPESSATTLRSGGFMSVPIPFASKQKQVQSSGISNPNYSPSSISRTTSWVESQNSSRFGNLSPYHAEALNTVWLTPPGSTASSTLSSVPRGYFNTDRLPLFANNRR
# T2: Shell domain (UniProt P54635 1-221)
# T2 chain: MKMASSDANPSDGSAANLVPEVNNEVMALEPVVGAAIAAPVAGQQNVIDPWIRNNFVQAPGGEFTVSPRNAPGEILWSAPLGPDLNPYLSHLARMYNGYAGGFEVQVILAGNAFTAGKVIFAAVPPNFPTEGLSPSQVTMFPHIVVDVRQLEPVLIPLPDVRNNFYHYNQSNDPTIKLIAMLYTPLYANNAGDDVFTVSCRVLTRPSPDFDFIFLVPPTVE
# Key:
# [1] = target: GI.2 (AF435807) VLPs (norovirus GI.2); experiment: ELISA
# [2] = target: GII.6 (AF414410) VLPs (norovirus GII.6); experiment: ELISA
# [3] = target: GII.6 (AF414410) VLPs (norovirus GII.6); experiment: VLP-PGM blockade
# [4] = target: T1, GI.1 (M87661) VLPs; experiment: ELISA
# [5] = target: GII.6 (norovirus GII.6); experiment: ELISA
# [6] = target: GII.13 (norovirus GII.13); experiment: ELISA
# [7] = target: GII.3 (norovirus GII.3); experiment: ELISA
# [8] = target: GII.6 (norovirus GII.6); experiment: VLP-PGM blockade
# [9] = target: GII.4 (UniProt P54635 1-538); experiment: VLP-PGM blockade
# [10] = target: Protruding domain; experiment: ELISA
# [11] = target: T2, Shell domain; experiment: ELISA
# [12] = target: T3, GII.4 Houston 2002 VLP (UniProt P54635 1-539); experiment: VLP blockade
# [13] = target: T3, GII.4 Houston 2002 VLP; experiment: ELISA binding
# [14] = target: GII.17 Protruding (norovirus GII.17); experiment: ELISA
# [15] = target: GII.6 Protruding (norovirus GII.6); experiment: ELISA
# [16] = target: GII.4 Protruding; experiment: ELISA
# [17] = target: GII.17 (norovirus GII.17); experiment: ELISA
# [18] = target: GI.3 (norovirus GI.3); experiment: ELISA
# [19] = target: GI.3 Shell (norovirus GI.3); experiment: ELISA
# [20] = target: GI.3 Protruding (norovirus GI.3); experiment: ELISA
# [21] = target: GII.6 Shell (norovirus GII.6); experiment: ELISA
# [22] = target: GII.17 Shell (norovirus GII.17); experiment: ELISA
binder,measurement,setting,value
"NORO-156.3 (antibody, V domains shown) VH: QVQLQQWGAGLLKPSETLSLTCAVYGGSFSGYYWSWIRQPPGKGLEWIGEINHSGSTNYNPSLKSRVTISVDTSKNQFSLKLSSVTAADTAVYYCARGLMDVWGQGTLVTVSS VL: AIRMTQSPSSFSASTGDRVTITCRASQGISSYLAWYQQKPGKAPKLLIYAASTLQSGVPSRFSGSGSGTDFTLTISCLQSEDFATYYCQQYYSYPRTFGQGTKLEIK",EC50,[1],175 nM
same,EC50,[2],39 nM
same,EC50,[3],355 nM
same,EC50,[4],42 nM
"232A.2 (antibody, V domains shown) VH: QVQLKQWGAGLLKSSETLSLTCAFNGNSFGAFYWSWIRLSPGKGLEWIGEVNYLGGADYNPSLKSRVTMSADTSKRQFSLSLKSVTAADTGVYFCARGRPHDYSPGSYSRPRRYYGLDVWGQGTTVTVSS VL: EIVLTQSPATLSLSPGDSATLSCRASQAVSTTYLAWYQQTRGQAPRLLIHGTYTRAIGIPDKFSGTGSGTDFTLTISGLAPEDFAVYYCQQYSSSPYTFGQGTKIEIT",EC50,[5],1 nM
same,EC50,[6],2 nM
same,EC50,[7],1 nM
same,EC50,[8],20 nM
same,EC50,[9],115 nM
same,EC50,[10],0.4 µg/mL
same,EC50,[11],38.1 µg/mL
same,EC50,[12],5.4 µg/mL
same,EC50,[13],0.2 µg/mL
same,EC50,[14],2 nM
same,EC50,[15],2 nM
same,EC50,[16],3 nM
"168.2 (antibody, V domains shown) VH: QVQLVESGGGVVQPGRSLRLSCAASGFTFSSYAMHWVRQAPGKGLEWVAVISYDGSNKYYADSVKGRFTISRDNSKNTLYLQMNSLRAEDTAVYYCARSVIGYYYYGMDVWGQGTLVTVSS VL: QPVLTQPPSASASLGASVTLTCTLSSGYSNYKVDWYQQRPGKGPRFVMRVGTGGIVGSKGDGIPDRFSVLGSGLNRYLTIKNIQEEDESDYHCGADHGSGILFGGGTKLTVL",EC50,[17],153 nM
same,EC50,[18],8 nM
same,EC50,[6],107 nM
same,EC50,[7],224 nM
same,EC50,[19],37 nM
same,EC50,[20],143 nM
same,EC50,[14],390 nM
same,EC50,[15],135 nM
same,EC50,[21],162 nM
same,EC50,[22],183 nM
